The record followed here is article PMC9012491, “Engineering the Single Domain Antibodies Targeting Receptor Binding Motifs Within the Domain III of West Nile Virus Envelope Glycoprotein” (Frontiers in Microbiology, 2022).

Experiment [1] deals with T1, synthetic analog of the receptor binding motif DIII-1^G299–K307 (West Nile virus; residues agree with …, biotinylated C-terminal lysine).
T1 construct: numbers count on: the E glycoprotein; rDIII is of strain goshawk (GenBank DQ116961.1); also called DIII-1^L299–K307 (so printed in the discussion); source: synthetic peptide (Caslo)
T1 chain: GTTYGVCSK
Kind of experiment: far-Western, overlay or dot blot; dot blot: purified sdAbs (1 μl) spotted on nitrocellulose, blocked with 5% BSA; biotinylated peptide 1 μg/ml in phosphate buffer pH 7.0, 1 h; streptavidin-HRP. The note with it: both partners purified.

Experiment [2] has as its target T2, synthetic analog of the receptor binding motif DIII-2^V371–R388 (West Nile virus; residues agree with …, biotinylated C-terminal lysine).
T2 construct: numbers count on: the E glycoprotein; rDIII is of strain goshawk (GenBank DQ116961.1); source: synthetic peptide (Caslo)
T2 chain: VLIELEPPFGDSYIVVGR
Described as above. The note with it: both partners purified.

B1: sdAbA6 (VHH)
VHH: EVQVVASGGGLVQPGGSLSLSCAASGFTFSGYDMTWVRQAPGKGLEWVSSINSGGGNTNYADSVKGRFTISRDNAKNTLYLQMNSLKPEDTALYYCARRNDYGSLLAALDAWGQGTLVTVS
B1: in experiment [1], the binding result is on record as “binds”.

B2: sdAbA1 (VHH)
VHH: QVQLLASGPGLVKPSQTLSLTCTVSGGAITSGYYGWSWIRQPPGKELEWMGVIASSGSTYYSPSLKSRTSISRDTSKSQFTLQLSSVTPEDTAVYYCARDAIQGPNFLYDYWGQGTLVTVS
As to B2, in experiment [1], the binding result is “binds”.

B3: sdAbA10 (VHH)
VHH: QVQVLASGGGLVQPGGSLRLSCAASGFTFSSNAMSWVRQAPGKGLEWVSTINSGGSRTTYTDSVKGRFTISRDNAKNTLYLQMNSLKPDDTAVYYCAKARVDLNLHGWGTSYEYDYWGQGTLVTVS
notes: also called sdAbA9
In the case of B3, the binding result in experiment [2] is recorded as “binds”.
